Series [1] in a line: immunoblot of endogenous CD47, MHCC97-H and HCCLM3. To be noted: control: matched control (untreated/DMSO, scramble, vector). (In general: In western blotting, separated proteins are transferred to a membrane and probed.)
Series [2] can be described thus: cell-surface CD47 by flow cytometry and immunofluorescence. As to conditions: glycan changed form; control: scramble / vector. (In flow cytometry, cells or beads pass a laser one at a time.)
Series [3] can be described thus: CHX chase, rescued MHCC97-H; half-life. To be noted: glycan changed form; control: scramble / vector, WT CD47 rescued cells.
Series [4] in a line: IP and ubiquitin immunoblot.
Series [5] is described as follows: CHX chase immunoblot, 293T; half-life. As to conditions: glycan lost.
The nature of series [6]: immunoblot, reconstituted MHCC97-H. As to conditions: glycan lost; control: WT CD47 reconstituted cells.
A short description of series [7]: CHX chase immunoblot, reconstituted MHCC97-H; half-life. As to conditions: glycan lost; control: WT CD47 reconstituted cells.
Series [8] can be described thus: Transwell chemotaxis; CCR7 on DCs. To be noted: glycan lost; control: CD47 WT reconstituted Hepa1-6.
Series [9] in a line: ubiquitin immunoblot, reconstituted Hepa1-6. As to conditions: glycan lost; control: WT CD47 reconstituted Hepa1-6.
The nature of series [10]: Transwell co-culture with BMDCs, flow cytometry. To be noted: glycan lost; control: CD47 WT reconstituted Hepa1-6.

We go through 18 molecules from publication PMC12931233.

As for CD47: 2F-Fuc, the expression_or_secretion entry in series [1] (glycan changed form) is given as “decreases”. In the case of CD47: FUT8 ablation, in series [2], the expression_or_secretion result is on record as “decreases”. Regarding CD47: FUT8 depletion, the degradation_or_half_life result in series [3] is reported as “decreases”. For CD47: FUT8 overexpression, the degradation_or_half_life result in series [3] was “increases”. Moreover, the expression_or_secretion entry in [2] was “increases”. In the case of CD47: HA-FUT8 WT overexpression, the “other: ubiquitination level” value in [4] (glycan changed form, control: untreated / vector) is given as “decreases”. For CD47: HA-FUT8 overexpression, in [1] (glycan changed form), the expression_or_secretion result is “increases”. Regarding CD47: N23Q, the “other: ubiquitination level” value in series [4] (glycan lost, control: WT CD47) is on record as “no change”. The degradation_or_half_life result in [5] (control: Flag-CD47 WT) was “no change”. With CD47: N34Q, the “other: ubiquitination level” value in [4] (glycan lost, control: WT CD47) is “no change”. Further, the degradation_or_half_life entry in series [5] (control: Flag-CD47 WT) is given as “no change”. For CD47: N50Q, in [4] (glycan lost, control: WT CD47), the “other: ubiquitination level” value was “no change”. Besides, the degradation_or_half_life entry in series [5] (control: Flag-CD47 WT) is “no change”. For the molecule CD47: N73Q, the “other: ubiquitination level” value in series [4] (glycan lost, control: WT CD47) is on record as “no change”. Further, the degradation_or_half_life entry in series [5] (control: Flag-CD47 WT) is “no change”. With CD47: N111A, the expression_or_secretion entry in series [6] is listed as “decreases”. Besides, in [7], the degradation_or_half_life entry is listed as “decreases”. On to CD47: N111Q, for which, in series [4] (glycan lost, control: WT CD47), the “other: ubiquitination level” value was “increases”. For the same molecule, in [6], the expression_or_secretion result is “decreases”. In addition, the degradation_or_half_life entry in series [5] (control: Flag-CD47 WT) and in series [7] was “decreases” each time. For the molecule CD47: N111T, the expression_or_secretion entry in [6] is “decreases”. The degradation_or_half_life result in series [7] is on record as “decreases”. Turning to CD47: shFUT8, the expression_or_secretion result in series [1] (glycan changed form) is “decreases”. With CD47: tunicamycin (TM), the “other: ubiquitination level” value in series [4] (glycan lost, control: untreated / vector) is reported as “increases”. Besides, the degradation_or_half_life result in [5] (control: DMSO) is given as “decreases”. The expression_or_secretion result in [1] (glycan lost) was “decreases”.

B1: CD47 (murine): N109Q (protein)
parent chain: MWPLAAALLLGSCCCGSAQLLFSNVNSIEFTSCNETVVIPCIVRNVEAQSTEEMFVKWKLNKSYIFIYDGNKNSTTTDQNFTSAKISVSDLINGIASLKMDKRDAMVGNYTCEVTELSREGKTVIELKNRTVSWFSPNEKILIVIFPILAILLFWGKFGILTLKYKSSHTNKRIILLLVAGLVLTVIVVVGAILLIPGEKPVKNASGLGLIVISTGILILLQYNVFMTAFGMTSFTIAILITQVLGYVLALVGLCLCIMACEPVHGPLLISGLGIIALAELLGLVYMKFVASNQRTIQPPRNR
For B1, the “other: CD103+ DC migration and CCR7 expression” value in series [8] was “increases”. Moreover, the “other: ubiquitination level” value in [9] is listed as “increases”. For the same molecule, in series [10], the “other: NK cell TNF-α and GZMB expression” value is “increases”.

B2: CD47 (murine): N109A (protein)
parent chain: MWPLAAALLLGSCCCGSAQLLFSNVNSIEFTSCNETVVIPCIVRNVEAQSTEEMFVKWKLNKSYIFIYDGNKNSTTTDQNFTSAKISVSDLINGIASLKMDKRDAMVGNYTCEVTELSREGKTVIELKNRTVSWFSPNEKILIVIFPILAILLFWGKFGILTLKYKSSHTNKRIILLLVAGLVLTVIVVVGAILLIPGEKPVKNASGLGLIVISTGILILLQYNVFMTAFGMTSFTIAILITQVLGYVLALVGLCLCIMACEPVHGPLLISGLGIIALAELLGLVYMKFVASNQRTIQPPRNR
Take B2: in series [10], the “other: NK cell TNF-α and GZMB expression” value is “increases”.

B3: CD47 (murine): N109T (protein)
parent chain: MWPLAAALLLGSCCCGSAQLLFSNVNSIEFTSCNETVVIPCIVRNVEAQSTEEMFVKWKLNKSYIFIYDGNKNSTTTDQNFTSAKISVSDLINGIASLKMDKRDAMVGNYTCEVTELSREGKTVIELKNRTVSWFSPNEKILIVIFPILAILLFWGKFGILTLKYKSSHTNKRIILLLVAGLVLTVIVVVGAILLIPGEKPVKNASGLGLIVISTGILILLQYNVFMTAFGMTSFTIAILITQVLGYVLALVGLCLCIMACEPVHGPLLISGLGIIALAELLGLVYMKFVASNQRTIQPPRNR
B3: in series [10], the “other: NK cell TNF-α and GZMB expression” value is recorded as “increases”.
